The values below come from article PMC7538550.

This experiment addresses FMDV A2001 Argentina capsid protomer (VP0, VP3 and VP1 cut from the polyprotein P12A by protease 3C) (Foot-and-mouth disease virus, serotype A, A2001 Argentina strain). The experiment can be described thus: sucrose gradient ultracentrifugation with ELISA of the fractions.

In turn, “FMDV A2001 Argentina capsid protomer (VP0, VP3 and VP1 cut from the polyprotein P12A by protease 3C) (complex)” had a percent of the antigen present as complete empty capsids (75s) of 84%.
